Measured values taken from the supplement of paper PMC7877785.
± gives the uncertainty stated by the source.

Experiment: self-splicing fitness, log relative to wild type (ln ratio); higher = more splicing; Tetrahymena group I intron in knt gene, E. coli kanamycin selection, DiMSum; sequences stand for … in CUCUCU…GGAGGGAAAAGUUAUCAGGCAUGCACCUGGUAGCUAGUCUUUAAACCAAUAGAUUGCAUCGGUUUAAAAGGCAAGACCGUCAAAUUGCGGGAAAGGGGUCAACAGCCGUUCAGUACCAAGUCUCAGGGGAAACUUUGAGAUGGCCUUGCAAAGGGUAUGGUAAUAAGCUGACGGACAUGGUCCUAACCACGCAGCCAAGUCCUAAGUCAACAGAUCUUCUGUUGAUAUGGAUGCAGUUCACAGACUAAAUGUCGGUCGGGGAAGAUGUAUUCUUCUCAUAAGAUAUAGUCGGACCUCUCCUUAAUGGGAGCUAGCGGAUGAAGUGAUGCAACACUGGAGCCGCUGGGAACUAAUUUGUAUGCGAAAGUAUAUUGAUUAGUUUUGGAGUACUCGUGGUCG
Outline: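 A randomised library covering all eight P1ex-region intron nucleotides was built with the intron in the knt kanamycin-resistance gene on pET-22b(+) and held in E. coli BL21(DE3). Cells were grown overnight at 37°C or 30°C on LB agar, with or without 25 μg/mL kanamycin, plus 100 μg/mL carbenicillin, 50 μM IPTG and 0.2% rhamnose, and pooled colonies were amplicon-sequenced on an Illumina HiSeq 2500. DiMSum fitness is the error-weighted combination of wild-type-normalised replicate fold changes, kanamycin versus none.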

| Sequence | self-splicing fitness (ln) (30 °C) | self-splicing fitness (ln) (37 °C) |
| --- | --- | --- |
| CCACAGCAAUAUUACGAGUC | -3.55 ± 0.24 | -2.7 ± 0.22 |
| AGUUAGCAAUAUUACGUUCU | -0.403 ± 0.1 | -0.302 ± 0.11 |
| UGCCAGCAAUAUUACGAAGU | -2.88 ± 0.22 | -2.97 ± 0.23 |
| GGGAAGCAAUAUUACGGCAC | 0.0244 ± 0.3 | -0.976 ± 0.36 |
| GCGGAGCAAUAUUACGAAGU | -3.58 ± 0.43 | -2.08 ± 0.36 |
| CGAUAGCAAUAUUACGGAUG | -0.777 ± 0.058 | 0.18 ± 0.07 |
| ACUUAGCAAUAUUACGCAAG | -2.24 ± 0.17 | -1.32 ± 0.14 |
| GGCAAGCAAUAUUACGUAUG | -2 ± 0.092 | -1.74 ± 0.1 |
| CGCAAGCAAUAUUACGCAGU | -3.23 ± 0.17 | -2.62 ± 0.21 |
| GAGGAGCAAUAUUACGGCUU | -3.52 ± 0.37 | -2.39 ± 0.25 |
| AGACAGCAAUAUUACGCUGG | -3.98 ± 0.31 | -3.5 ± 0.3 |
| GCAUAGCAAUAUUACGAAUU | -2.48 ± 0.2 | -1.61 ± 0.2 |
| GGGUAGCAAUAUUACGUCAU | -0.733 ± 0.07 | -0.742 ± 0.081 |
| CACGAGCAAUAUUACGGCAC | -2.97 ± 0.23 | -2.43 ± 0.25 |
| CAGAAGCAAUAUUACGAUCG | -0.236 ± 0.078 | 0.167 ± 0.1 |
| GAGAAGCAAUAUUACGAAUG | -3.46 ± 0.28 | -1.7 ± 0.18 |
| UGGAAGCAAUAUUACGGCAC | – | -1.36 ± 0.37 |
| GGGGAGCAAUAUUACGUGCA | -3.32 ± 0.25 | -1.08 ± 0.17 |
| UACAAGCAAUAUUACGUACC | -2.83 ± 0.19 | -1.93 ± 0.19 |

| Sequence | self-splicing fitness (ln) (30 °C) | self-splicing fitness (ln) (37 °C) |
| --- | --- | --- |
| CUCAAGCAAUAUUACGCCGA | – | -1.29 ± 0.34 |
| GGCGAGCAAUAUUACGACUC | -0.185 ± 0.14 | 0.173 ± 0.24 |
| AGUAAGCAAUAUUACGCCCC | 0.393 ± 0.41 | -1.15 ± 0.36 |
| CCAUAGCAAUAUUACGGGAG | -2.96 ± 0.15 | -2.89 ± 0.25 |
| AUUGAGCAAUAUUACGUAGG | -3.16 ± 0.37 | 0.0777 ± 0.29 |
| AUUCAGCAAUAUUACGCCCA | -1.11 ± 0.18 | -0.0785 ± 0.23 |
| CUCCAGCAAUAUUACGCGCA | -3.34 ± 0.31 | -2.56 ± 0.49 |
| AGAUAGCAAUAUUACGGCCG | -0.583 ± 0.13 | -0.128 ± 0.23 |
| GCAAAGCAAUAUUACGGGUC | -2.55 ± 0.14 | -1.05 ± 0.12 |
| CACCAGCAAUAUUACGCACU | -3.96 ± 0.21 | -1.59 ± 0.12 |
| CCCAAGCAAUAUUACGAGGA | -1.42 ± 0.078 | -0.592 ± 0.074 |
| UCCAAGCAAUAUUACGUCAA | -2.68 ± 0.19 | -0.871 ± 0.1 |
| UUUAAGCAAUAUUACGCUGG | -2.26 ± 0.21 | -0.317 ± 0.18 |
| GAGAAGCAAUAUUACGACGC | -0.75 ± 0.15 | -0.292 ± 0.17 |
| CGUCAGCAAUAUUACGUGUG | -0.543 ± 0.059 | -0.104 ± 0.068 |
| ACCUAGCAAUAUUACGUCAG | -3.93 ± 0.19 | -1.85 ± 0.1 |
| AGCUAGCAAUAUUACGAUGA | -2.51 ± 0.21 | -2.54 ± 0.15 |
| AUGAAGCAAUAUUACGAGUG | -1.22 ± 0.056 | -0.514 ± 0.081 |
| UGGAAGCAAUAUUACGCAAA | -1.24 ± 0.16 | -0.937 ± 0.16 |
